Test results from patent US11795460B2, “Compositions and methods for TTR gene editing and treating ATTR amyloidosis” (Intellia Therapeutics, Inc., priority 2017, dated 2023).
Strand notation (5' to 3'): a small letter for the sugar, then the base; units joined by * are phosphorothioate-linked, units joined directly phosphodiester-linked; [ ] holds rarer units or linkages, { } end groups; capitals alone tell only the bases. m = 2'-O-methyl; r = 2'-OH (RNA)

System: HuTTR V30M locus
Assay: Liver editing in humanized transgenic V30M mouse model of hereditary ATTR amyloidosis
Type: in vivo
Settings: V30M humanized mice, single 1 mg/kg dose of LNP
Description: Unless otherwise noted, CD-1 female mice, ranging from 6-10 weeks of age were used in each study. Animals were weighed and grouped according to body weight for preparing dosing solutions based on group average weight. LNPs were dosed via the lateral tail vein in a volume of 0.2 mL per animal (approximately 10 mL per kilogram body weight). […] Body weight was measured at twenty-four hours post-administration, and animals were euthanized at various time points by exsanguination via cardiac puncture under isoflourane anesthesia. Blood was collected into serum separator tubes or into tubes containing buffered sodium citrate for plasma as described herein. […]
To quantitatively determine the efficiency of editing at the target location in the genome, sequencing was utilized to identify the presence of insertions and deletions introduced by gene editing. […]
Additional PCR was performed per the manufacturer's protocols (Illumina) to add chemistry for sequencing. […] The reads were aligned to a reference genome (e.g., the human reference genome (hg38), the cynomologus reference genome (mf5), the rat reference genome (rn6), or the mouse reference genome (mm10)) after eliminating those having low quality scores. […]

B1: G000481: TTR sgRNA modified sequence, Human, SEQ ID No. 88; guide sequence of CR003345 (nucleic acid)
guide: mU*mC*mU*rArGrArArCrUrUrUrGrArCrCrArUrCrArGrGrUrUrUrUrArGrAmGmCmUmAmGmAmAmAmUmAmGmCrArArGrUrUrArArArArUrArArGrGrCrUrArGrUrCrCrGrUrUrArUrCrAmAmCmUmUmGmAmAmAmAmAmGmUmGmGmCmAmCmCmGmAmGmUmCmGmGmUmGmCmU*mU*mU*mU
Q: How did the “Editing of TTR in livers” value (8 weeks post treatment) turn out when B1 was run?
A: The value was 49.4%.

Q: And the “Share of editing events that were insertions” value (remainder deletions)?
A: Its value is 96.8%.
